Measured values as given in paper PMC4687524, “Molecular Properties and Functional Divergence of the Dehydroascorbate Reductase Gene Family in Lower and Higher Plants” (PLoS ONE, 2015).
Values belong to the molecule of their own block, whether it stands above or below them.

How the values were obtained:
Experiment in all cases: A265 increase (ascorbate formation), nonlinear regression
ZmDHAR2 = tested on: T1, ZmDHAR2; format: biochemical, Zea mays; details: 0.42 mM GSH; DHA 0.013-1.677 mM; 90 mM potassium phosphate pH 6.5, 25 C; read-out: Kinetic constants / K m ^DHA
T1 construct: gene DHAR2; clade I
Excerpt: A265 increase (ascorbate formation), nonlinear regression on ZmDHAR2

[1] = substrate: O=C1O[C@H]([C@@H](O)CO)C(=O)C1=O; format: biochemical, Picea abies; details: 0.42 mM GSH, DHA 0.013-1.677 mM, 90 mM potassium phosphate pH 6.5, 25 C
Excerpt: A265 increase (ascorbate formation), nonlinear regression on PabDHAR2

[2] = substrate: O=C1O[C@H]([C@@H](O)CO)C(=O)C1=O; format: biochemical, Selaginella moellendorffii; details: 0.42 mM GSH, DHA 0.013-1.677 mM, 90 mM potassium phosphate pH 6.5, 25 C
Excerpt: A265 increase (ascorbate formation), nonlinear regression on SmDHAR1

Km (ZmDHAR2): 68 ± 9 µM
Molecule: O=C1O[C@H]([C@@H](O)CO)C(=O)C1=O [dehydroascorbate]

B1: PabDHAR2 (Picea abies) (protein)
chain: MSDLEIFSKAAPGTGSPSKERGDCPFSQRIFLELEELGLPYTATYIQEGADKPHWFMEKNPSGLMPVLRDRETWIQDSDKIAQYLDDHYAENTLRTQVEFKNVGSKIFPIFTKWLQCKDPNSACRDEFVDELVGFDRHLQNHGPYIAGKRPTDSDFALAPKLRHARVALAHFMDFQFPRELGALQNYMNRMESRESFEKTNYPNDMIIQGWRAKFNLPEKIANAS
notes: full length without predicted signal peptide, N-terminal 6xHis (pET-30a), E. coli BL21(DE3), Ni Sepharose; cytosolic, clade II, five exons
Km [1]: 0.118 ± 0.001 mM

B2: SmDHAR1 (Selaginella moellendorffii) (protein)
chain: MAVATTEAVEVLVKAANGDPSRLGDCPFSQRVLLTLEEKGIPYNSKFVDMENKPAWFLEANPEGKVPVVKDDGKWVADSDVITQLIETKFPSPSLVTPPEKSSVGSKIFSSFVKFLKSKDPSDGSEAALLEELKTLDEYLAKNGPFVNGSNISAVDLSLAPKLYHLKIALGHYKQWSVPQNLTNLNSYMEALFKRESFQKTMAPAEVVVKGWAKHLSA
notes: full length without predicted signal peptide, N-terminal 6xHis (pET-30a), E. coli BL21(DE3), Ni Sepharose; cytosolic, clade I
Km [2]: 0.115 ± 0.004 mM
